From the supplement of paper PMC9170038 come the findings set out here.

This series concerns MS2 coat protein. The experiment in a line: apparent KD of MS2 coat protein; designed switch direction (-1 OFF switch, 1 ON switch): -1; higher = weaker reporter binding. The procedure, abridged: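 On Illumina chips, designed RNA switches with common flanks were made by stalled E. coli RNA polymerase. Titrations with SNAP-549-labelled MS2 coat protein, doubling from 0.7 or 1.5 nM to 3 µM, were done with no input, with 200 uM small-molecule ligand, or with an oligonucleotide input. Apparent KD is the median per design over clusters, from curve fits of normalised cluster fluorescence.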

[1] abbreviates: Eterna round: R95, input ligand: FMN 200 uM.
[2] abbreviates: Eterna round: R95, input ligand: microRNA oligo, concentration not stated.
[3] abbreviates: Eterna round: R95, input ligand: none.
[4] abbreviates: input ligand: microRNA oligo, concentration not stated.

For the sequence “CCGAAAAUGCAGGAUAUCGUAUCGGAAACGAUACGAGAAGGGCAAACAUGAGGAUCACCCAUGUUCCUUAACGG [Mat - Exclusion 6 - Eli Mod - D76] (puzzle: Exclusion 6)”, the “apparent KD of MS2 coat protein” value runs as follows: under setting [1], 21.3 nM; under setting [2], 19.4 nM; under setting [3], 18.9 nM.

As to “CCGAAUAAGCAGGAUAUCGUAUCGGAAACGAUACGAGAAGGGCUAACAUGAGGAUCACCCAUGUUCCUUAACGG [Fiskers Ex 6 - 15] (puzzle: Exclusion 6)”, under setting [2], the “apparent KD of MS2 coat protein” value came to 19.2 nM.

On to “CCGACCCUAGGAUAUUGUACUGCUGACAUGAGGAUCACCCAUGUAUGUUAACUCGGCCGACGAGAAGGAGGCGAAA [BotMod 5 - Jieux - Exclusion 5] (Eterna round: R97, puzzle: Exclusion 5)”, for which the “apparent KD of MS2 coat protein” value is, setting by setting: (input ligand: FMN 200 uM) 21.7 nM; (input ligand: none) 20.3 nM.

For “CCGACGUGAGGAUAUCCAUCUGGAUCAGACUAGAUCCUGAUGGAGAAGGCACAUGAGGAUCACCCAUGUCACGG [Eli 4x 4.48] (Eterna round: R97, puzzle: Exclusion 4)”, the “apparent KD of MS2 coat protein” value reads like this: (input ligand: FMN 200 uM) 413 nM; (input ligand: none) 140 nM.

Consider “CCGAGCAAGGUGAGGAUAUUAAGAGCUACAGAGCAUGAGAAGGCACAUGAGGAUCACCCAUGUUACUACAGGGA [Eternabot (L1) Solution 66] (Eterna round: R97, puzzle: Brourd's mod of Exclusion 4)”, for which the “apparent KD of MS2 coat protein” value is, setting by setting: (input ligand: FMN 200 uM) 54.9 nM; (input ligand: none) 54 nM.

For “CCGAGCAGACGGAGAUCCAACAUGAGGAUCACCCAUGUCUCAAAAGCUUUUUGCUUGUCUUAUUCUCCUCUGUUCUC [Qureorxe] (Eterna round: R96, puzzle: Sensor v3, turn-off variant 1)”, the “apparent KD of MS2 coat protein” value (input ligand: FMN 200 uM) stood at 13 nM, the “apparent KD of MS2 coat protein” value under setting [4] was 29.6 nM and the “apparent KD of MS2 coat protein” value (input ligand: none) was 15.6 nM.

In the case of “CCGAGCAGACGGAGAUCCAACAUGAGGAUCACCCAUGUCUCAAAAGCUUUUUGCUUGUCUUAUUCUCCUCUGUUCUC [Qureorxe] (puzzle: Sensor v3, turn-off variant 1)”, the “apparent KD of MS2 coat protein” value is, setting by setting: under setting [1], 12.5 nM; under setting [2], 29.2 nM; under setting [3], 11.3 nM.

In the case of “CCGAGGUGGCGGUCCUAUGACAUGAGGAUCACCCAUGUACCUCGCCACGAGCUUUUUGCUCAUCUUAUAAUUCUCGG [Edbibice] (puzzle: Sensor v3, turn-off variant 1)”, the “apparent KD of MS2 coat protein” value by setting is: under setting [1], 17.2 nM; under setting [2], 18.9 nM; under setting [3], 16.6 nM.

On to “CCGAGUCGAGUGAGGAUAUAGCUAAGACCGCUUAGCUAGAAGGCACAUGAGGAUCACCCAUGUCUUAGGAGAAG [Eternabot (L1) Solution 80] (Eterna round: R97, puzzle: Brourd's mod of Exclusion 4)”, for which the “apparent KD of MS2 coat protein” value (input ligand: FMN 200 uM) amounted to 22.4 nM and the “apparent KD of MS2 coat protein” value (input ligand: none) turned out to be 22.2 nM.

“CCGCAAAAGCAGGAUAUCGUAUCGGAUACGAUACGAGAAGGGCUAACAUGAGGAUCACCCAUGUGUCCUAGCGG [Fiskers Ex 6 - 38] (puzzle: Exclusion 6)”: under setting [2], the “apparent KD of MS2 coat protein” value amounted to 15.4 nM.

For the sequence “CCGCAAAAGGAGGAUAUCGUAUCGGAUACGAUACGAGAAGGCUUUACAUGAGGAUCACCCAUGUGUCCUAGCGG [Fiskers Ex 6 - 47] (puzzle: Exclusion 6)”, the “apparent KD of MS2 coat protein” value under setting [2] worked out at 13.4 nM.

On to “CCGCAAAUGCAGGAUAUCGUAUCGGAUACGAUACGAGAAGGGCAUACAUGAGGAUCACCCAUGUGUCCUAGCGG [Fiskers Ex 6 - 43] (puzzle: Exclusion 6)”, for which the “apparent KD of MS2 coat protein” value under setting [2] was 16 nM.

As for “CCGCAUAUGGAGGAUAUCGUAUCGGAAACGAUACGAGAAGGCUAAACAUGAGGAUCACCCAUGUUCCUUAACGG [Fiskers Ex 6 - 29] (puzzle: Exclusion 6)”, the “apparent KD of MS2 coat protein” value under setting [2] came out at 15.2 nM.

With “CCGCCGCAAGGAUAUACUUGCGGUGGUGUUCGAGUUCUUUUACUUGAGGAUCACCCAAGUAGAAGGUGCAAAAC [jl-ex2.4.55 ViennaUCT mod] (Eterna round: R97, puzzle: Exclusion 2)”, the “apparent KD of MS2 coat protein” value is, setting by setting: (input ligand: FMN 200 uM) 11.9 nM; (input ligand: none) 11.5 nM.

“CCGCCUGGAUAGGAUAUAGAGCUUUGAGAGGUCCUAGAAGGGUCCACAUGAGGAUCACCCAUGUCACAAUAUCG [Eternabot (L1) Solution 71] (Eterna round: R97, puzzle: Exclusion 6)”: the “apparent KD of MS2 coat protein” value is, setting by setting: (input ligand: FMN 200 uM) 28 nM; (input ligand: none) 29.6 nM.

Consider “CCGCUACAUGAGGAUCACCCAUGUCAGGAUAUCGUACGUUCGUCGAAAGACGAUCGUACGAGAAGGGUGAGCGG [Eli x1 4.38] (Eterna round: R97, puzzle: Exclusion 1)”, for which the “apparent KD of MS2 coat protein” value (input ligand: FMN 200 uM) came to 138 nM and the “apparent KD of MS2 coat protein” value (input ligand: none) turned out to be 187 nM.

“CCGCUGCAAGGAUAUACUUGCGGUGGUGUUCGAGUUCUUCUACUUGAGGAUCACCCAAGUAGAAGGUGCAAAAC [jl-ex2.4.56 ViennaUCT mod] (Eterna round: R97, puzzle: Exclusion 2)”: the “apparent KD of MS2 coat protein” value (input ligand: FMN 200 uM) was found to be 12.6 nM and the “apparent KD of MS2 coat protein” value (input ligand: none) turned out to be 13.5 nM.

Turning to “CCGGAAAGGGAGGAUAUAGGAGUCGAUAGACACCUAGAAGGCCUGACAUGAGGAUCACCCAUGUGUCCUACCGG [Fiskers Ex 6 - 91] (puzzle: Exclusion 6)”, the “apparent KD of MS2 coat protein” value under setting [2] turned out to be 13.7 nM.

For the sequence “CCGGAAAUGAAGGAUAUAGGAGUCGAUAGACUCCUAGAAGGUCAUACAUGAGGAUCACCCAUGUGUCCUACCGG [Fiskers Ex 6 - 74] (puzzle: Exclusion 6)”, the “apparent KD of MS2 coat protein” value under setting [2] worked out at 12.9 nM.

Take “CCGGAAAUGAAGGAUAUAGGCGUCGAUAGACUCCUAGAAGGUCAUACAUGAGGAUCACCCAUGUGUCCUACCGG [Fiskers Ex 6 - 75] (puzzle: Exclusion 6)”: the “apparent KD of MS2 coat protein” value under setting [2] was 14.7 nM.

As for “CCGGAAAUGAAGGAUAUAGGUGUCGAUAGACUCCUAGAAGGUCAUACAUGAGGAUCACCCAUGUGUCCUACCGG [Fiskers Ex 6 - 76] (Eterna round: R96, puzzle: Exclusion 6)”, the “apparent KD of MS2 coat protein” value was found to be 36.7 nM (input ligand: FMN 200 uM), 13.3 nM under setting [4] and 18 nM (input ligand: none).

As for “CCGGAAAUGAAGGAUAUAGGUGUCGAUAGACUCCUAGAAGGUCAUACAUGAGGAUCACCCAUGUGUCCUACCGG [Fiskers Ex 6 - 76] (puzzle: Exclusion 6)”, the “apparent KD of MS2 coat protein” value under setting [2] worked out at 15.6 nM.

Consider “CCGGAAGUACAGGAUAUCGUAACGGAGACGUUACGAGAAGGGUAUACAUGAGGAUCACCCAUGUGUCCUACCGG [Mat - Exclusion 6 - Eli Mod - D94] (puzzle: Exclusion 6)”, for which the “apparent KD of MS2 coat protein” value under setting [1] was found to be 33.8 nM, the “apparent KD of MS2 coat protein” value under setting [2] was 22 nM and the “apparent KD of MS2 coat protein” value under setting [3] turned out to be 32.2 nM.

For the sequence “CCGGAUAUGCAGGAUAUCGUAUCGGAAACGAUACGAGAAGGGUAUACAUGAGGAUCACCCAUGUGCCUUACCGG [Fiskers Ex 6 - 19] (puzzle: Exclusion 6)”, under setting [2], the “apparent KD of MS2 coat protein” value was 16 nM.

With “CCGGAUAUGCAGGAUAUCGUAUCGGAGACGAUACGAGAAGGGUAUACAUGAGGAUCACCCAUGUGUCCUACCGG [Mat - Exclusion 6 - Eli Mod - D84] (puzzle: Exclusion 6)”, the “apparent KD of MS2 coat protein” value under setting [2] amounted to 22.2 nM.
